According to the supplement of paper PMC9942255:
Several values for one entry are separate records, joined by “and”; a condition that tells them apart may be missing. Equal values may be shown once.

System: Bacillus subtilis DB104 (SP-AmyQ fusion secretion)
Test: AmyQ secretion efficiency, weighted average sort bin (1 = best secretion, 10 = worst) (bin number (weighted average, 1-10)); higher = lower secretion efficiency
Procedure, shortened: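 The secretion score gives the average bin number weighted by read frequency and normalised to beads per bin, with low-abundance sequences excluded. Bins were 10 equally populated green/red fluorescence ratio fractions of occupied ~65 nL alginate beads, sorted by large-particle flow cytometry. The beads held fluorescein-starch and about 0.3 cells each of an amyE-integrated B. subtilis DB104 library fusing designed signal peptides to mature AmyQ, and they were grown about 13 h at room temperature and stained with nile red before sorting and Illumina sequencing.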

Sequence | AmyQ secretion efficiency
MKLKKRVSYFLVALTMCGGLFVTPAKAVKT | 6.42
MRNRRKTSLLLAGLCTAAQMVFVTHASAEES | 3.33
MLKRTSFVSSLFISSAVLLSILLGSGQAHAQSA | 2.06
MKKCLLFLTTIALILSLSTNAFAEDE | 4.16
MKKVLMAFIICLSLILSVLAAPPSGAKTESV | 5.06
MFNRLFRVCFLAALIMAFTLPNSVYAQTP | 2.03
MKLAKRVSALTPSTTLAITAKSKEL | 7.27
MRMLWRSLALCGLALTLAPCVQAAEP | 1.79
MKLAKRVSALTPSTTLAIEEEEAKAKEL | 7.01
MKKKQVMGYTTAAAGLGLTALHSAPAAKAAPL | 7.28
MLKKKWMVGLLAGCLAAGDDEYNAFATEN | 4.98
MKRLLILLLIIIMLLGGTTFAPSAFAKQD | 2
MTMLRKIIGWILLLCIIPLFAFTVIASGATD | 6.31
MGLGKKLSVAVAASFMSLSISLPGCQAAEG | 1.48
MKRKLLSSLAISALSLGLLVKRRKKKSFAAES | 7.18
MLCVMMLLFSAIASFPVSAQNKDQ | 6.98
MLCVMMLLFMAIASFPVSAQAKDQ | 5.48
MKRIRIPMTLALGAALTIAPLDEEDDDASAEEN | 5.27
MKLAKRVRRKRPSTTLAITAKAKEL | 6.87
MTGTIITATTAVVLGSTLFAGAASAQSI | 2.31
MMIKQCVICLSLLVFGTTAAHSEET | 4.24
MNMLKRLSMLTVMIASVFIFSSHALAAQY | 1.63
MKRIRIPMTLALGAALTISFASAEEN | 6.71
MTMLRKIIGWILLLCIIPLFAFTVIPSGKEV | 8.07
MGSLTKTSLLLAGLCTAAQMVFVTHASAEES | 4.02
MKSKGSIMACLILFSFTITTFINTETISMFSN | 7.38

Sequence | AmyQ secretion efficiency
MKKRLIAPMLLSAASLAFFAMSGSAQAEED | 2.35
MTTKFTALAVFLLCFMPAAKIKRKHTQASLL | 7.32
MKLKSKLLLSCLALSTVFVATTILNAPTH | 6.08
MKSKGSIMACLILFSFTITTFINTETISEFSN | 7.72
MTKLKMLSMLTVMIASLFIFSSQALVVQY | 5.36
MPIKKKVMMCLAVTLVFGSMSFPTLTNVGGFKE | 5.79
MKKLLAAGIIGLLTVSIASPTFAAEK | 2.52
MRGKSAVLLSLIMLIAGFLIDFSFQM | 7.67
MRSYIKVLTMCFLGLILFVKRRKRRALADNS | 7.48
MTMLRKIIGWILLLCIIPLFAFTVIASGAED | 6.01
MKRMIVRMTLPLLIVCLAFSSFSASARNASE | 3.81
MTKLKMLSMLTVMIASLFIFSSQALFVQY | 7.31
MKKAFLVFLSVVLVTTVFLVKQQESVHQAKQL | 6.34
MKRTLPLLIVCLAFSSFSASARAASE | 2.25
MRGKSAVLLSLIMLIAGFLIPFSFQM | 7.72
MKKWIYVVLVLSIAGIGGFSLHAASS | 6.87
MLKKIALTLCPAIVGSLLFFTAPASAHVE | 2.48
MAIIIAIIAAVIVIAALITFNVNNASPG | 7.54
MKLKKRVSMFLVALTMCGGLFVTPAKYVKT | 5.18
MKKLLAAGIIGLLTVTVFVTSIASPSFAAEK | 2.51
MFNRLFRVCFLAALIMAFTLPNSVYMQKP | 7.02
MRKNRILALFVLSLGLLSFMVTPVSAASK | 2.04 and 2.05 and 2.92
MKKRLIGFLVLVPALIMSGITLIEMNKK | 6.01
MRKIIGWILLLCIIPLFAFTVIASGKEV | 7.63
MFFKKTVVSALSISALALSVSGVASAHEI | 3
MPYLKRVLLLLVTGLFMSLFAVTATASARRR | 7.69

Sequence | AmyQ secretion efficiency
MLTLRTLCVLMILSGVIFFGLKIDAKDI | 6.18
MKRLCRKKRKKSLFLVLLPGKALGAVD | 7.45
MLKKKWMVGLLAGCLAAGGFSYNAFMTEN | 6.25
MKKSMLAAAVLLSLGLVFGFSYGAGHVAEAKTK | 2.84
MRMLWRSLALCGLALTLAPCMQAAEP | 1.94
MKKTRQTLVILGALGTSYISADSS | 5.19
MAIIIAIIAAVIVIAALITFNVHNASPG | 7.6
MFNRLFRVCFLAALIMAFTLPNSVYAQPK | 1.86
MKKAFLVFLSVVLVTTVFLVKQQESVAQKKQL | 4.43
MKSKWMSGLLLVAVGFSFTQVMVHQGET | 6.96
MRKTIFAFLTGLMMFGTITALSASPD | 5.45
MKKVLMAFIICLSLILSVLAAPPSGAKMESV | 4.39
MKLKSKLLLSCLALSTVFVATTICNAPTH | 5.85
MKLSVKIAGVLTVAAAAMTAKMYATWKGN | 7.14
MGLGKKLSVAVAASFMSLSISLPGVQAAED | 2.84
MRRGKKLSVAVAASFMSLSISLPGVQAAEG | 1.3
MNLNTILLSSALSLGMLVSAAPVLATSS | 1.5
MNLRKILLSSALSLGMLVSAAPELATSS | 3.72
MRMLWRSLALCGLALTLAPCWQAAEP | 5.47
MLKRTSLFISSAVLLSILLPSGQAHAQSA | 2.05
MRGKSAVLLSLIMLIAGFLIYFSFQM | 8.11
MFLKLLLATSALTFSLSLVLPLDGHAKAQEV | 2.93
MSTNLLSSLAISALSLGLLVSAPTASFAAES | 3.94
MKKGIIRFLLVSFVLFSTGITGVQAAPA | 2.37
MKLAKRVSALTPSTTLAITAKYKEL | 5.07
MLKKVKRRRFILVGSTLGAFSFSSDASAKHV | 7.34

Sequence | AmyQ secretion efficiency
MGLGKKLSVAVAASFMSLSISLPGWQAAEG | 5.06
MGLGKKLSVAVAASFMSLSISLPGVQTAEG | 3.78
MLCVMMLLFSAIASFPVSVQAKDQ | 3.83
MTKKAWFLPLVCVLLISGWLAPAASASQQTT | 2.02
MGRFSTAYLLLGILCSAAVFLIGAPSRALGAEV | 2.59
MFSRKILLSSALSFGMLISAVPALAAGT | 3.61
MFTFSGSMFLVGLSAALMSISLFSATASAAST | 1.64
MRSKKTWISLLFALTLIFTMAFSNMSAQAAGK | 3.25
MQRRQRYRQRVIVIAALITFNVRNASPG | 8.93
MRGKSAVLLSLIMLIAGFLQQSFSFQM | 7.38
MPIKKKVMMCLAVTLVFGSMSFPTLTNSGEFKE | 5.74
MKRLFMKLLTTTASLVLFAVVFVFAVKGAPAKAETH | 2.87
MRRKKKRVLTMCFLGLILFVPTALADNS | 3.09
MRKTIFAFLTGLMMFGTITAASASPR | 4.47
MKKRLIGFLVLVPALIMSGITLIEYNKK | 9.98
MTKKYWQSPYYCRLLISGWLAPAASASAQTT | 8.15
MRKKCSTCRWILVLLLSCLSGKSAYAATS | 5.49
MFNRLFRVCFLAALIMAFTLPNSVYAQKR | 2.62
MKRIRIPMTLALGAALTIAPLSFQSAEEN | 6.97
MKKQIITATTAVVLGSTLFAKKASAQSI | 6.18
MKLWMRKTLVVLFTIVTFGLVSPPAASMADKP | 1.85
MGLGKKLSVAVAASFMSLSISLPGVQFAEG | 4.64
MRKKRRRVITCVMAASLTLGSLLPAGYATAKED | 3.9
MKKTMTIGLLFMLCLAALFTIGFPAQQADAAEA | 2.9
MKKRFSLIMMTGLLFGLTSPAFAADE | 3.46
MKLWMRKTLVVLFTIVTFGLVSPPAAFMADKP | 2.2

Sequence | AmyQ secretion efficiency
MKSKWMSGLLLVAVGFSFTQVMVHEGET | 5.54
MKSKGSIMACLILFSFTITTFINTETSSVFTPISAFSN | 6.5
MKRTWNVCLTALLSVLLVAGSVTLVAAPFHAEAKKP | 2.5
MPYLKRVLLLLVTGLFMSLFAVTATASKQTG | 1.26
MKLSVKIAGVLTVAAAAMTAKMYYTAKGN | 6.5
MKWMCSICCAAVLLAGGAAQARRK | 6.49
MKKSQYFIVFICFFVLFSVHPIAEAAADS | 3.62
MKSKWMSGLLLVAVGFSFTQVMVHADEE | 6.6
MKLSVKIAGVLTVAAAAMTAKMYATSKGN | 6.78
MKKLVLCVSILAVILKRKRKKALTQLS | 6.12
MRKNRSSMSFTLILALFVLSLGLLSFMVTPVSAASK | 1.45
MLTKRLLTIYIMLLGLILAWFPGAAQAEEK | 2.09
MKNMSCKLVVSVTLFFSFLTIGPLAHLQNS | 6
MPYLKRVLLLLVTGLFMSLFAVTATASAQTK | 1.71
MKSKVKIAGVLTVAAAAMTAKMYATAKGN | 7.17
MRPVFPLILSAVLFLSCFEGAEQTEASASKR | 3.25
MKKRLIAPMLLSAASLAFFAKRKSAQAAAY | 7.88
MKLWMRKTLVVLFTIVTFGLVSPPAAQMADKP | 1.81
MKSKGSIMACLILFSFTITTFINTETISVFSN | 7.71
MKKKQQHSTRRKLIVLLFFSFFGVQPIHAKKQ | 5.23
MKKTIMSTYGVAALSTTAFGAHASAKEI | 8.21
MTMLRKIIGWILLLCIIPLFAFTVIVSGKEV | 5.52
MPYLKRVRKLLVTGLFMSLFAVTATASAQTG | 1.73
MKSKWMSGLLLVAVGFSFTQVMVHAGTT | 5.78
